# According to patent US20190241655A1:
# Experiments:
# [1] = target: human PI16 (Peptidase inhibitor 16) expressed on the cell surface (human) (UniProt Q6UXB8); assay: flow cytometry, ILT3Fc cross-linked with anti-human Fc antibody on PI16-transfected 3A9 cells
# [2] = target: human PI16 (Peptidase inhibitor 16) expressed on the cell surface (human) (UniProt Q6UXB8); assay: flow cytometry, ILT3Fc on PI16-transfected 3A9 cells
# [3] = target: ILT3-CD3z fusion protein on reporter cells (human); assay: cell-based or functional assay
# Sequence of ILT3-CD3z fusion protein on reporter cells (human) (Q8NHJ6 22-259): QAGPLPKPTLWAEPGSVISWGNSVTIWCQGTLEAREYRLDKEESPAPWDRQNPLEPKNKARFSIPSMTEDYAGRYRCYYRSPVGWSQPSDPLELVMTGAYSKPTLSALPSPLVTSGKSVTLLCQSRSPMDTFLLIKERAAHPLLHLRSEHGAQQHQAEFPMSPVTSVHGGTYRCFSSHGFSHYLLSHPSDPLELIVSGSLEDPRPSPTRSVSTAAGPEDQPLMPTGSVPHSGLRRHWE
percent of cells stained [1] [%],percent of cells stained [2] [%],luciferase activity of ILT3 reporter cells [3] [log],Substance
23,8.3,–,ILT3Fc (Fc fusion)
–,–,2,human PI16 (Peptidase inhibitor 16) expressed on the cell surface (from UniProt Q6UXB8 28-463) (ligand)
